Test results reported in the Immune Epitope Database (IEDB).

How the values were obtained:
HLA-A*01:01 = assay: IEDB peptide-MHC binding, purified MHC/direct/fluorescence; filed as Kd, often an IC50 or EC50 that approximates it; ≥ and ≤ were set here for values at or beyond the usual limits of such assays; conditions: source organism: Giardia lamblia ATCC 50803
HLA-A*02:01 = assay: as above; conditions: source organism: Giardia lamblia ATCC 50803
HLA-A*02:06 = assay: as above; conditions: source organism: Giardia lamblia ATCC 50803
HLA-A*02:11 = assay: as above; conditions: source organism: Giardia lamblia ATCC 50803
HLA-A*02:12 = assay: as above; conditions: source organism: Giardia lamblia ATCC 50803
HLA-A*02:16 = assay: as above; conditions: source organism: Giardia lamblia ATCC 50803
HLA-A*03:01 [1] = assay: as above; conditions: source organism: Giardia lamblia ATCC 50803
HLA-A*11:01 [2] = assay: as above
HLA-A*24:02 = assay: as above; conditions: source organism: Giardia lamblia ATCC 50803
HLA-A*31:01 [3] = assay: as above
HLA-B*07:02 = assay: as above
HLA-B*08:02 [4] = assay: as above
HLA-B*15:01 = assay: as above; conditions: source organism: Giardia lamblia ATCC 50803
HLA-B*18:01 = assay: as above; conditions: source organism: Giardia lamblia ATCC 50803
HLA-B*27:05 = assay: as above
HLA-B*40:01 = assay: as above
HLA-B*44:02 = assay: as above; conditions: source organism: Giardia lamblia ATCC 50803
HLA-B*46:01 = assay: as above
HLA-B*58:01 = assay: as above
HLA-A*02:03 = assay: IEDB peptide-MHC binding, purified MHC/competitive/fluorescence; filed as Kd, often an IC50 or EC50 that approximates it; ≥ and ≤ were set here for values at or beyond the usual limits of such assays; conditions: source organism: Giardia lamblia ATCC 50803
HLA-A*03:01 [5] = assay: as above; conditions: source organism: Human immunodeficiency virus 1
HLA-A*11:01 [6] = assay: as above; conditions: source organism: Human immunodeficiency virus 1
HLA-A*26:01 = assay: as above; conditions: source organism: Human immunodeficiency virus 1
HLA-A*26:03 = assay: as above; conditions: source organism: Human immunodeficiency virus 1
HLA-A*30:01 = assay: as above; conditions: source organism: Human immunodeficiency virus 1
HLA-A*31:01 [7] = assay: as above; conditions: source organism: Human immunodeficiency virus 1
HLA-B*08:02 [8] = assay: as above; conditions: source organism: Human immunodeficiency virus 1
HLA-C*01:02 = assay: IEDB peptide-MHC binding, purified MHC/direct/fluorescence; filed as Kd, often an IC50 or EC50 that approximates it; ≥ and ≤ were set here for values at or beyond the usual limits of such assays; conditions: source organism: Homo sapiens
HLA-A*68:02 = assay: as above; conditions: source organism: Mycobacterium tuberculosis
HLA-B*08:01 = assay: as above; conditions: source organism: Mycobacterium tuberculosis str. Haarlem
HLA-B*08:03 = assay: as above; conditions: source organism: Mycobacterium tuberculosis str. Haarlem
HLA-B*48:01 = assay: as above; conditions: source organism: Mycobacterium tuberculosis
HLA-B*57:01 = assay: as above; conditions: source organism: Mycobacterium tuberculosis
[9] = source organism: Giardia lamblia ATCC 50803
[10] = source organism: Mycobacterium tuberculosis

HCIDKTPGL
Kd (HLA-A*01:01): ≥ 20 µM
Kd (HLA-A*02:01): 319 nM
Kd (HLA-A*02:06): 106 nM
Kd (HLA-A*02:11): 914 nM
Kd (HLA-A*02:12): 260 nM
Kd (HLA-A*02:16): 390 nM
Kd (HLA-A*03:01 [1]): ≥ 20 µM
Kd (HLA-A*11:01 [2]; [9]): ≥ 20000 nM
Kd (HLA-A*24:02): ≥ 20 µM
Kd (HLA-A*31:01 [3]; [9]): ≥ 20 µM
Kd (HLA-B*07:02; [9]): ≥ 20 µM
Kd (HLA-B*08:02 [4]; [9]): ≥ 20 µM
Kd (HLA-B*15:01): ≥ 20 µM
Kd (HLA-B*18:01): ≥ 20 µM
Kd (HLA-B*27:05; [9]): ≥ 20 µM
Kd (HLA-B*40:01; [9]): ≥ 20 µM
Kd (HLA-B*44:02): ≥ 20 µM
Kd (HLA-B*46:01; [9]): ≥ 20 µM
Kd (HLA-B*58:01; [9]): ≥ 20 µM
Kd (HLA-A*02:03): 2480 nM

IATLYCVHQR
Kd (HLA-A*03:01 [5]): ≥ 20 µM
Kd (HLA-A*11:01 [6]): 5.82 µM
Kd (HLA-A*26:01): ≥ 20 µM
Kd (HLA-A*26:03): ≥ 20 µM
Kd (HLA-A*30:01): 5.99 µM
Kd (HLA-A*31:01 [7]): 760 nM
Kd (HLA-B*08:02 [8]): ≥ 20 µM

PLPDRSLPAL
Kd (HLA-C*01:02): ≤ 0.1 nM

TLLESFLFY
Kd (HLA-A*11:01 [2]; [10]): 10 nM
Kd (HLA-A*31:01 [3]; [10]): ≥ 20 µM
Kd (HLA-A*68:02): ≥ 20 µM
Kd (HLA-B*07:02; [10]): ≥ 20 µM
Kd (HLA-B*08:01): ≥ 20 µM
Kd (HLA-B*08:02 [4]; source organism: Mycobacterium tuberculosis str. Haarlem): ≥ 20 µM
Kd (HLA-B*08:03): ≥ 20 µM
Kd (HLA-B*27:05; [10]): ≥ 20 µM
Kd (HLA-B*40:01; [10]): ≥ 20 µM
Kd (HLA-B*46:01; [10]): ≥ 20 µM
Kd (HLA-B*48:01): ≥ 20 µM
Kd (HLA-B*57:01): ≥ 20 µM
Kd (HLA-B*58:01; [10]): ≥ 20 µM
